T1: CD20 on Raji cells (UniProt P11836 1-297, limits assumed)
T1 construct: whole, on cells
T1 sequence (looked up): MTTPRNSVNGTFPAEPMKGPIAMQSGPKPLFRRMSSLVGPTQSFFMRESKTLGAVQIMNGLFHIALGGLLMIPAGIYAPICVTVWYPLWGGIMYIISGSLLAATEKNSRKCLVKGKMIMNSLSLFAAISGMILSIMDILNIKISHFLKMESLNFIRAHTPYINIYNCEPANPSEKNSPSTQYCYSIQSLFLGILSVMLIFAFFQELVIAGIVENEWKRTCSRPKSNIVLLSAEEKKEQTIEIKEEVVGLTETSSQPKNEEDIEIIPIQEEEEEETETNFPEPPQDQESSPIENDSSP


Columns and labels:
[1] = target: T2, CD33 on MOLM-13 and MV-411 cells (UniProt P20138 18-364, limits assumed); assay: flow cytometry on CD33-expressing MOLM-13 cells, anti-human A647
T2 construct: whole, on cells
Procedure: (§1) A monospecific CD33 construct comprising an irrelevant second VHH domain instead of a γδTCR VHH domain (CD33×UT; cx12056) was also tested. Briefly, frozen PCMCs (previously treated with zoledronate to expand γδ T cells) were thawed and washed twice using 1×CTL thawing reagent in assay media. Cells were resuspended to 1×10\hat{ }6 cells/mL in FACs buffer and plated on a 96 well plate (100,000 cells/well). The test articles were added in 50 uL to each well at 4× the final starting concentration of 200 nM and titrated 1:4 across. 50 uL of FACS buffer was added for the final total volume of 200 uL. Cells were incubated with the test article at 4 C for 30 minutes, washed three times, and stained with Vd2-PE, CD3-BV785, and anti-human-A647 antibodies in FACS buffer for 30 minutes at 4 C. The cells were then washed 2× with FACS buffer, resuspended in 70 ul of FACS buffer and read on a Novocyte. All the molecules bound to CD33 expressing MOLM-13 (FIG. 8A) and MV4-11 (FIG. 8B) cells in a titration dependent manner. However, only the bispecific γδTCR×CD33 molecule bound to V 9Vδ2 T cells (FIG. 8C) in a titration dependent manner.

CD20 on Raji cells = target: T1, CD20 on Raji cells; assay: flow cytometry on CD20-expressing Raji cells, anti-human Fcγ A647
Procedure: (§2) The binding activity of a bispecific γδ TCR molecule that binds γδTCR and the representative target antigen CD20 (γδTCR×CD20) comprising anti-γδ VHH domain 1D7v9, an anti-CD20 VHH domain and a heterodimeric knob-in-hole Fc region (cx11498) was assessed by flow cytometry on Raji target cells expressing CD20 and Vγ9Vδ2 T cells. PBMCs and Raji cells were thawed and resuspended to 1.0×10\hat{ }6 cells/ml in FACS buffer. 100,000 PBMCs or Raji cells were seeded in a 96-well plate. Test articles were added at a final starting concentration of 50 nM and titrated across the plate 1:4. Cells were incubated with the antibody for 30 minutes at 4 C, spun down, and washed four times with FACS buffer. Cells were labeled with anti-human Fcγ-A647 (Jackson ImmunoResearch) and PBMCs were also labeled with anti-human δ TCR-FITC (Biolegend) in 50 uL of FACS for 30 minutes at 4 C. The plate was washed twice with FACS buffer, resuspended in FACS buffer and read on the IQue flow cytometer. The mean fluorescent intensity for anti-human Fcγ-A647 was calculated using onboard software and graphed using Graphpad Prism. The γδ TCR×antigen molecule bound to both antigen (CD20) expressing Raji cells (FIG. 7A) and V 9Vδ2 T cells (FIG. 7B) in a titration dependent manner.

[2] = target: T3, human γδ TCR (Vγ9Vδ2) on human γδ T cells (human); assay: flow cytometry on human PBMC gated on γδ TCR+ (Vγ9Vδ2) T cells, anti-human Fcγ A647
T3 construct: whole, on cells; also called Vδ2+ γδ T cells; Vγ9Vδ2 T cells
Procedure: as §2

[3] = target: T3, human γδ TCR (Vγ9Vδ2) on human γδ T …; assay: flow cytometry on zoledronate-expanded human PBMC gated on Vδ2+ cells, anti-human A647
Procedure: as §1

T2 sequence (P20138 18-364 limits assumed): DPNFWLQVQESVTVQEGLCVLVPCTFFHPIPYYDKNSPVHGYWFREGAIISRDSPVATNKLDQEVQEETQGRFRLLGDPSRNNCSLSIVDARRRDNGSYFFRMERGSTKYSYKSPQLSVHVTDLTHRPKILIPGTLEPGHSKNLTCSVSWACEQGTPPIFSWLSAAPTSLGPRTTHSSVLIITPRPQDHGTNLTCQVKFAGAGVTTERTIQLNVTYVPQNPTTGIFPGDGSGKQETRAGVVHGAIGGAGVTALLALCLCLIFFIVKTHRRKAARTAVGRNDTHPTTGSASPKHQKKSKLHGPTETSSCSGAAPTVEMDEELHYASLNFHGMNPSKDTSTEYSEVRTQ
T3 sequence (main, as listed by the source): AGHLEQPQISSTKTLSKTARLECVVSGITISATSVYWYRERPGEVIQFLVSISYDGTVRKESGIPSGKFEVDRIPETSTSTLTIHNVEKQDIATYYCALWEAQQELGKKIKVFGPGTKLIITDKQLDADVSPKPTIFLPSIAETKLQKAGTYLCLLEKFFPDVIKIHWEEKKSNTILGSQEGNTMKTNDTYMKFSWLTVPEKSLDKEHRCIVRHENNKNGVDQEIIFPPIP

| binding result [1] | EC50 (read off the curve) (CD20 on Raji cells) | EC50 (read off the curve) [2] | EC50 (read off the curve) [3] | Binder |
| --- | --- | --- | --- | --- |
| binds |  |  |  | cx12056, CD33×UT (untargeted) monospecific CD33 construct (anti-CD33 VHH-Fc knob / 4GFTv1 VHH-Fc hole) (Fc fusion, also called CD33 x UT) chain 1: EVQLVESGGGEVQPGGSLRLSCAASRSSGIDVMGWYRQAPGKERELVAEISGVGDTNYAASLADRFTVSRDNAKNTVYLQMSSLRAEDTAVYYCNAHSFLDLVGAWGQGTLVTVKPGGGGDKTHTCPPCPAPGGPSVFLFPPKPKDTLMISRTPEVTCVVVDVSHEDPEVKFNWYVDGVEVHNAKTKPREEQYNSTYRVVSVLTVLHQDWLNGKEYKCKVSNKALPAPIEKTISKAKGQPREPQVYTLPPCRDELTKNQVSLWCLVKGFYPSDIAVEWESNGQPENNYKTTPPVLDSDGSFFLYSKLTVDKSRWQQGNVFSCSVMHEALHNHYTQKSLSLSPGK chain 2: EVQLVESGGGEVQPGGSLRLSCSAAPERAFSNYAMGWFRQAPGKGREFVAGITGSGRSQYYAESVKGRFTISRDNAKNTLYLQMSSLRAEDTAVYYCAARVVPVFSESTKGYVYWGQGTLVTVKPGGGGDKTHTCPPCPAPGGPSVFLFPPKPKDTLMISRTPEVTCVVVDVSHEDPEVKFNWYVDGVEVHNAKTKPREEQYNSTYRVVSVLTVLHQDWLNGKEYKCKVSNKALPAPIEKTISKAKGQPREPQVCTLPPSRDELTKNQVSLSCAVKGFYPSDIAVEWESNGQPENNYKTTPPVLDSDGSFFLVSKLTVDKSRWQQGNVFSCSVMHEALHNRYTQKSLSLSPGK |
|  | ~5 nM | ~2 nM |  | cx11498, γδTCR×CD20 bispecific polypeptide (1D7v9 VHH-Fc hole / anti-CD20 VHH-Fc knob) (bispecific antibody, V domains shown, also called γδ TCRxCD20; anti-CD20×Vγ9-1D7v9) V domain 1: EVQLLESGGGEVQPGGSLRLSCVASRGKISQYRMGWYRQAPGKELEWVAHISNTGDAAEYVDSVKGRFTISRDSTKNAVYLQMSSLRAEDTAVYKCNSVEDILAWGQGTLVTVKP V domain 2: QVQLQESGGGLVQPGGSLRLSCAASGRTFSMGWFRQAPRKEREFVAAITYSGGSPYYASSVRGRFTISRDNAKNTVYLQMNSLKPEDTAVYYCAARLTYGSTWSAENWGQGTQVTVKP |
| binds |  |  | ~20 nM | cx12083, γδTCR×CD33 bispecific polypeptide (anti-CD33 VHH-Fc knob / 1D7v9 VHH-Fc hole) (bispecific antibody, V domains shown, also called γδ TCRxCD33; CD33×1D7v9) V domain 1: EVQLVESGGGEVQPGGSLRLSCAASRSSGIDVMGWYRQAPGKERELVAEISGVGDTNYAASLADRFTVSRDNAKNTVYLQMSSLRAEDTAVYYCNAHSFLDLVGAWGQGTLVTVKP V domain 2: EVQLLESGGGEVQPGGSLRLSCVASRGKISQYRMGWYRQAPGKELEWVAHISNTGDAAEYVDSVKGRFTISRDSTKNAVYLQMSSLRAEDTAVYKCNSVEDILAWGQGTLVTVKP |

Reference: patent US20250066477A1 (INHIBRX BIOSCIENCES, published 2025)
